Drawing on doi:10.1101/2023.12.19.572348, this text covers Kd for one substance.

The assay addresses GRASP65-homologue protein 1 (Grh1) (S. cerevisiae) (UniProt Q04410). As to the kind of experiment: circular dichroism + electron paramagnetic resonance.
UniProt Q04410, sequence (Q04410 whole entry): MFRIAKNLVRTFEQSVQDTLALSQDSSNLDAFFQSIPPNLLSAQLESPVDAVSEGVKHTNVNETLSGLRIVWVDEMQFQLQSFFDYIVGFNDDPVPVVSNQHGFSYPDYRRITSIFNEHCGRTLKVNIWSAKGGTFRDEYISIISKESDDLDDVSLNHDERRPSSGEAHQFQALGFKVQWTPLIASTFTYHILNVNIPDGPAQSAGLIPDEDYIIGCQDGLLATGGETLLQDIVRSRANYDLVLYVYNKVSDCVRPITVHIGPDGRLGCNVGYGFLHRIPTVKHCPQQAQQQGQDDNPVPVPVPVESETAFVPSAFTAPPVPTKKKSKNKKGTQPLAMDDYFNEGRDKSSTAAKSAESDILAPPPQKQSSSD

Consider “Acyl-CoA Binding Protein 1 (ACBP) (from UniProt P31787 1-87) (natural protein)”, for which the Kd (in general, a measure of binding affinity in units of concentration) is greater than 1000 µM.
